This note sets out measurements from PMC10618690.

The target of assay [1] is histone H3 amino acids 16-35, H3K27me2 peptide (UniProt P68431). Put plainly: peptide or protein array.
Assay [2] has as its target histone H3 amino acids 16-35, H3K27me3 peptide (UniProt P68431). Put plainly: peptide or protein array.

As for “GST-tagged PWWP2 domain of Apis mellifera DNMT3 (domain or fragment)”, the fold increase in binding over the unmodified peptide in assay [1] and in assay [2] was 3 fold throughout.

On to “GST-tagged PWWP1 domain of Apis mellifera DNMT3 (domain or fragment)”, for which the fold increase in binding over the corresponding unmodified peptide in assay [1] worked out at 5 fold; in assay [2] it was 3 fold.
